# Tested on: HL-60 cells
# Assay: RT-PCR quantification of hPLD1a and hPLD1b during dbcAMP-induced HL-60 cell differentiation
# Assay type: cell-based, human
# Settings: 0.5 mM dbcAMP
# Description: To analyze changes in the levels of hPLD1 a and hPLD1b during HL-60 cell differentiation induced by dcbAMP, HL-60 cells maintained in RPMI-1640 medium supplemented with 10% fetal bovine serum, 100 units/ml penicillin and 100 µg/ml streptomycin in a humidified atmosphere containing 5% CO2, at 37 C. were grown in RPMI-1640 medium without fetal bovine serum for 24 hours. Differentiation was initiated by the addition of 0.5 mM dbcAMP. Levels of PLD1a and PLD1b were quantified by RT-PCR. Total RNA was isolated from the HL-60 cells at the exponential growth stage by the acid guanidine thiocyanate method following the protocol of Chomczynski, Anal. Biochem. 162: 156-62(1992). Two g of RNA was reverse transcribed by using random hexamer mixed primers. The number of amplification cycles were determined to individual primer sets in order to maintain exponential rate of product amplification. Amplified DNA fragments were subjected to electrophoresis on 1.5% agarose gel and visualized by ethidium bromide staining. The intensity of bands was quantified by a densitometer (Atto Densitograph, Tokyo, Japan). Primer A (Forward): nucleotides 1475 through 1491; primer B (reverse) nucleotides 2133 through 2113 of SEQ ID NO: 1. Amplification conditions used were 94 C. for 30 seconds, 60 C. for 1 minute, and 72 C. for 1 minute; 25-27 cycles.
Molecule,"increase in level (printed as activity) on day 1 (day 1, RT-PCR)","increase in level (printed as activity) on day 2 (day 2, RT-PCR)","increase in level (printed as activity) on day 3 (day 3, RT-PCR)","increase over the 3 day differentiation period (3 days, RT-PCR)"
"hPLD1b: human phospholipase D1b splice variant, approximately 1036 amino acid protein, SEQ ID NO:5 (protein, listed as Homo sapiens) MSLKNEPRVNTSALQKIAADMSNIIENLDTRELHFEGEEVDYDVSPSDPKIQEVYIPFSAIYNTQGFKEPNIQTYLSGCPIKAQVLEVERFTSTTRVPSINLYTIELTHGEFKWQVKRKFKHFQEFHRELLKYKAFIRIPIPTRRHTFRRQNVREEPREMPSLPRSSENMIREEQFLGRRKQLEDYLTKILKMPMYRNYHATTEFLDISQLSFIHDLGPKGIEGMIMKRSGGHRIPGLNCCGQGRACYRWSKRWLIVKDSFLLYMKPDSGAIAFVLLVDKEFKIKVGKKETETKYGIRIDNLSRTLILKCNSYRHARWWGGAIEEFIQKHGTNFLKDHRFGSYAAIQENALAKWYVNAKGYFEDVANAMEEANEEIFITDWWLSPEIFLKRPVVEGNRWRLDCILKRKAQQGVRIFIMLYKEVELALGINSEYTKRTLMRLHPNIKVMRHPDHVSSTVYLWAHHEKLVIIDQSVAFVGGIDLAYGRWDDNEHRLTDVGSVKRVTSGPSLGSLPPAAMESMESLRLKDKNEPVQNLPIQKSIDDVDSKLKGIGKPRKFSKFSLYKQLHRHHLHDADSISSIDSTSNTGSIRSLQTGVGELHGETRFWHGKDYCNFVFKDWVQLDKPFADFIDRYSTPRMPWHDIASAVHGKAARDVARHFIQRWNFTKIMKSKYRSLSYPFLLPKSQTTAHELRYQVPGSVHANVQLLRSAADWSAGIKYHEESIHAAYVHVIENSRHYIYIENQFFISCADDKVVFNKIGDAIAQRILKAHRENQKYRVYVVIPLLPGFEGDISTGGGNALQAIMHFNYRTMCRGENSILGQLKAELGNQWINYISFCGLRTHAELEGNLVTELIYVHSKLLIADDNTVIIGSANINDRSMLGKRDSEMAVIVQDTETVPSVMDGKEYQAGRFARGLRLQCFRVVLGYLDDPSEDIQDPVSDKFFKEVWVSTAARNATIYDKVFRCLPNDEVHNLIQLRDFINKPVLAKEDPIRAEEELKKIRGFLVQFPFYFLSEESLLPSVGTKEAIVPMEVWT",less than 2 fold,approximately 3 fold,approximately 3.5 fold,–
"PLD1: purified recombinant mammalian PLD1 (SEQ ID NOS:2 or 5), a/b form not specified (protein, UniProt Q13393 1-1074, looked up) Phospholipase D1: MSLKNEPRVNTSALQKIAADMSNIIENLDTRELHFEGEEVDYDVSPSDPKIQEVYIPFSAIYNTQGFKEPNIQTYLSGCPIKAQVLEVERFTSTTRVPSINLYTIELTHGEFKWQVKRKFKHFQEFHRELLKYKAFIRIPIPTRRHTFRRQNVREEPREMPSLPRSSENMIREEQFLGRRKQLEDYLTKILKMPMYRNYHATTEFLDISQLSFIHDLGPKGIEGMIMKRSGGHRIPGLNCCGQGRACYRWSKRWLIVKDSFLLYMKPDSGAIAFVLLVDKEFKIKVGKKETETKYGIRIDNLSRTLILKCNSYRHARWWGGAIEEFIQKHGTNFLKDHRFGSYAAIQENALAKWYVNAKGYFEDVANAMEEANEEIFITDWWLSPEIFLKRPVVEGNRWRLDCILKRKAQQGVRIFIMLYKEVELALGINSEYTKRTLMRLHPNIKVMRHPDHVSSTVYLWAHHEKLVIIDQSVAFVGGIDLAYGRWDDNEHRLTDVGSVKRVTSGPSLGSLPPAAMESMESLRLKDKNEPVQNLPIQKSIDDVDSKLKGIGKPRKFSKFSLYKQLHRHHLHDADSISSIDSTSSYFNHYRSHHNLIHGLKPHFKLFHPSSESEQGLTRPHADTGSIRSLQTGVGELHGETRFWHGKDYCNFVFKDWVQLDKPFADFIDRYSTPRMPWHDIASAVHGKAARDVARHFIQRWNFTKIMKSKYRSLSYPFLLPKSQTTAHELRYQVPGSVHANVQLLRSAADWSAGIKYHEESIHAAYVHVIENSRHYIYIENQFFISCADDKVVFNKIGDAIAQRILKAHRENQKYRVYVVIPLLPGFEGDISTGGGNALQAIMHFNYRTMCRGENSILGQLKAELGNQWINYISFCGLRTHAELEGNLVTELIYVHSKLLIADDNTVIIGSANINDRSMLGKRDSEMAVIVQDTETVPSVMDGKEYQAGRFARGLRLQCFRVVLGYLDDPSEDIQDPVSDKFFKEVWVSTAARNATIYDKVFRCLPNDEVHNLIQLRDFINKPVLAKEDPIRAEEELKKIRGFLVQFPFYFLSEESLLPSVGTKEAIVPMEVWT",–,–,–,3-4 fold

# From patent US6379665B1, “Phospholipase D polypeptide and DNA sequences” (Onyx Pharmaceuticals, Inc., priority 1996, dated 2002)
